Values of other authors as cited in publication PMC2879707.
pKd: −log10 of the molar value.

Molecular target: F-actin (Oryctolagus cuniculus) (UniProt P68135)

- pKd: 6.82
Substance: espin (from UniProt Q63618)
